Results reported in the domain aggregation screens of Martell et al. (2025).

Assay: soluble fraction after stress (log2 fold change); higher = more stays soluble; pooled small domains, quantitative proteomics
Conditions: stress: 50 degC
Summary of the method: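 After stress at 50°C, the amount of each protein still soluble was measured. This was done on pooled custom libraries of small protein domains, using high-throughput quantitative proteomics. The figure given is a base-two log fold change and stands for aggregation propensity, with higher values meaning more protein stays in solution.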

Sequence	soluble fraction (log2)
HMSTEPLALVGKTGIAATVLRPSGRIEVDDKYYDAVSLGAFIEKGEMVNIVKYENLQLYVAKL	-0.0644
HMGAISGEQREFYTVFRGHLNSHVGEFKVEDIENLLMKAKTEVPDLLEEEFLKMGEAILNRYRN	-0.0826
HMDASFTYSLETHPAGVLVRVDGLEYETPFSILLPQGVHRLEVAGEERFFYLSETTHQFLEID	-0.901
HMGIVAGGTQSIATLRAIDTTDAQLYPDKILINVEDAGLYRLDRQSTATDDGNQVIKPTVGVGRWLKMTS	-0.11
HMGSQELIQLGERIRQKRKDSHLTQETFAEKAGISVNTVSRIEGGQAAMSIEIFAKLVEILDADANELLG	-1.14
HMGASTQLVEIKNAYENGEWQNVIDLAGKLHEKYNGSEEDKEAQEMAKNSQSKLDEAAAAKAAEEA	-0.033
HMGKVNTRNRNEGKFYKNGKKKPANWEYRFEAAPVNGKRQQISDAGYPTEKAAYEAGIAAYEKYNSAGSVN	0.0482
HMPSDLQATLRAVQGMLQGVEGVDARLAGQRILLEGDSADARARERAAAIAGIFPGVVIDFVG	-0.155
HMLDLSEEEQKIVSILEKQGNLQINSLVVEADIPVHKINAILFELEMKGVVRVLALSLIHISEP	0.0725
HMAANKIDEDRNTELLQVIQNKFPDADAATKKSVKEIMKEHDIPNFKNADDIPTAVLEQIVKVLNQ	0.323
HMPDFAENAVYGKQREDSLYAHAYKHFQLGDTTTVRAAEHLSAEIYPLGQHRPKFMFLNAVTR	0.0766
HMKISDLPAAQVYREIVHAWPKAAAYADLAPINNGGMQRWRDVVHEWVLRGYNPANLRGMLEWYKAGIPTR	-0.398
HMAPRQDIAYYTVKPGDTVLAIAEKFGLQPETLMWSNSIIEQNPDRLSIGDELRILPVDGVLHVVK	0.0612
HMVRSKLEIVPVPEDAVVKIAGLKRLTYQAYQNEDVPYMVYKNGYEAQSGTVFMDTDKTLTVTLEESP	-0.0311
HMQDTTLTSQILRVPSSVNINDLANVLKSLAGKNTVVAPYKAANTIIITGYAPNVRRVLSLANELIPRLDV	-0.53
HMKERLLDPYKDFIVNYLQKYPYTPAAVMHDKLKESYPDFPKVDPKTIYNFVMLLRRDFNIPKV	-0.306

Sequence	soluble fraction (log2)
HMKKAMIISTKRGTPAAELDKIIREFEAKGLSVTMIRGTDYNVFGLVGDTTVIDEKQVRANPYVENVQRV	0.135
HMSLPAYIKISEVIARRINAGQILAGDRLPNERTMAVEFGVAVGTLRKALYHLQVRGLVTRKHGSGNYINK	-0.177
HMAFDYETYQLTSREFSIIELVADGRSNREIAEALYLGEGTVRNYLSSILEKLELRDRTQLAVFFYQHL	-2.3
HMDADTVGQIRVVKQILDDGRLIVVDASGNPVLVRRSSALSLTAISQGDRIIVDPSVRLAIELLPNE	0.185
HMDKGMQTMIDNLHKNTGKTLEEWIALVNRANFAKHGEVISFLKEKHGLTHGYANLVAHRLK	0.113
HMDRNEFVSTLRAALTGAVSPAIVEDNVRYYQNYISQEIASGKSEKEVLDGLGDPRLIARTIIDT	0.0674
HMRDITAQSNASELYFEERDLEAFIEKLERLYPEIRYVNRLMIHSWGQQVVRFFDPDGNLIEVGTP	-0.145
HMTVLPTENDAKALVGLNEDEAVKIIEGNGWTYRIGSRDGEQFMLTEDYSTSRLTLGIEKSIVVTATI	-0.151
HMRGWGTVKRRTPKSGRYRASYIGPDGKRYAADHTYAAKVDADAWLSSERALITAGVWTPPTDRVT	-0.286
HMSQQVVTDGVNLRLRYAPSPDAETYKWADGTNRHPEKGERFPYLGDIGDFYRIDYKGLVLYVSKQHTHL	-1.85
HMNRNEFMERLEYLLSDIPQEEKADAIAYYRDYLEEAGDDAGKAIQDFGSPERIAAMIRSELAG	-0.0703
HMQLTQEAIENLFKITTAKKFREELEKLVVTDSEKKAFAYFTVYHPKLKELPFAILKSVENYTGISI	-0.871
HMSTEAVVMSSSVSVKSSPDKASTDLFVLHEGTKVRTVSELGDWREIVIADGKKGWVEARTIET	≥ 0.62
HMVSSEGLASGIERMLVEFGLETDKGRRFAMWSLLYMLGSAPDLDVAFKDPRDREAARTFMDLLDQANA	-0.69
HMNPNYIKKLREKNQLTQEYLAAQIGVSRPTYAQIEQGQRGLTVTEAKKMADIFSLALDDFLAEKN	0.0013
